In the data set the target is T1, SSBP1 (Mus musculus, UniProt Q9CYR0).
T1 construct: biotinylated DNA oligo probes against endogenous or ectopically expressed circ-Insr and linear-Insr; endogenous in cells; host or cells: 3T3 cells
T1 sequence (Q9CYR0 17-152): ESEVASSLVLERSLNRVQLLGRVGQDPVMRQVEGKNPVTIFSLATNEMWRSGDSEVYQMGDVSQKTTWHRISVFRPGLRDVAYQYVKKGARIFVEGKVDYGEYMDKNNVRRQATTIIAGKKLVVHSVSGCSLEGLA
Description: RNA pull-down with circINSR probe, Western blotting. To be noted: Western blot with SSBP1-specific antibodies. Type of data set: binding. As to the method: Finally, RNA pull-down experiments were performed to identify potential protein interaction partners of circINSR. To do so, a biotin-labelled probe was designed which spans the backsplice junction (FIG. 8A). […] Mass spectrometry analysis of the pull-down lysates yielded a list of potential protein interactors. After applying several filtering parameters (relative MS peptide count >15, relative enrichment over hostgene and control probe log 2FC>2) and cat rapid analysis to calculate the interaction propensity with circINSR, Single-stranded DNA-binding protein 1, SSBP1, was identified as the most probable binding partner of circINSR (FIG. 8B). […] Moreover, co-localisation of circINSR and SSBP1 in Immuno-RNA-FISH staining, further confirmed the interaction between those two.
Cell pellets were lysed in 1× Cell lysis buffer (Cell Signaling) and isolated protein was measured by Bradford (Biorad) for quantification. […] Band intensity was calculated by Image J software.
10^6 cells were washed in ice-cold phosphate-buffered saline, lysed in 500 μl co-IP buffer, and incubated with 3 μg biotinylated DNA oligo probes against endogenous or ectopically expressed circ-Insr and linear-Insr, at room temperature for 2 h. […] The bound proteins in the pull-down materials were analyzed by western blotting and the RNA sample were analysed via qRT-PCR.

B1: circINSR: circRNA formed through backsplicing of the second exon of the insulin receptor gene transcript; overexpressed from plasmid or AAV (nucleic acid, listed as Homo sapiens)
chain: UGUGUCCCGGCAUGGAUAUCCGGAACAACCUCACUAGGUUGCAUGAGCUGGAGAAUUGCUCUGUCAUCGAAGGACACUUGCAGAUACUCUUGAUGUUCAAAACGAGGCCCGAAGAUUUCCGAGACCUCAGUUUCCCCAAACUCAUCAUGAUCACUGAUUACUUGCUGCUCUUCCGGGUCUAUGGGCUCGAGAGCCUGAAGGACCUGUUCCCCAACCUCACGGUCAUCCGGGGAUCACGACUGUUCUUUAACUACGCGCUGGUCAUCUUCGAGAUGGUUCACCUCAAGGAACUCGGCCUCUACAACCUGAUGAACAUCACCCGGGGUUCUGUCCGCAUCGAGAAGAACAAUGAGCUCUGUUACUUGGCCACUAUCGACUGGUCCCGUAUCCUGGAUUCCGUGGAGGAUAAUUACAUCGUGUUGAACAAAGAUGACAACGAGGAGUGUGGAGACAUCUGUCCGGGUACCGCGAAGGGCAAGACCAACUGCCCCGCCACCGUCAUCAACGGGCAGUUUGUCGAACGAUGUUGGACUCAUAGUCACUGCCAGAAAG
modifications: circular RNA; RNA sequence
notes: circRNA formed through backsplicing of the second exon of the insulin receptor gene transcript; overexpressed from plasmid or AAV
Regarding B1, the “interaction of circINSR with SSBP1” value is “confirmed a physical interaction”.

These data come from patent publication US20240299584A1, “NON-CODING RNA PROTECTING AGAINST HEART FAILURE” (MEDIZINISCHE HOCHSCHULE HANNOVER, priority 2019, published 2024).
